Assay results from the supplement of paper PMC5998384.

What was measured:
[1] = test system: HeLa Kyoto; test: solubility in G1/S (NP-40 vs SDS abundance) (log2 ratio); higher = more soluble; conditions: cell cycle stage: G1/S
[2] = test system: HeLa Kyoto; test: melting temperature (median over replicates), in situ; higher = more thermally stable
[3] = test system: HeLa Kyoto; test: solubility change mitosis vs G1/S (difference of NP-40 vs SDS log2 ratios) (log2 ratio difference); higher = more soluble in mitosis
[4] = test system: HeLa Kyoto; test: thermal stability score vs G1/S (z-score of summed log2 fold changes over temperatures); higher = more thermally stable than in G1/S
[5] = cell cycle stage: early G1 (4.5 h after nocodazole release)
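For melting temperature (median over replicates), in situ in this document: HeLa Kyoto cells synchronized by double thymidine or nocodazole block, proteins quantified by TMT10plex mass spectrometry, three independent biological replicates.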
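For solubility change mitosis vs G1/S (difference of NP-40 vs SDS log2 ratios) in this document: synchronized HeLa Kyoto cells (double thymidine block for G1/S, nocodazole release for mitosis), protein amounts in NP-40 versus SDS lysates quantified by mass spectrometry, three biological replicates.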
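For solubility in G1/S (NP-40 vs SDS abundance) in this document: HeLa Kyoto cells arrested at G1/S by double thymidine block, proteins quantified by TMT10plex mass spectrometry in mild NP-40 versus SDS extracts, three biological replicates.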
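For thermal stability score vs G1/S (z-score of summed log2 fold changes over temperatures) in this document: synchronized HeLa Kyoto cells, proteins quantified by TMT10plex mass spectrometry, three biological replicates, mitosis taken 0.5 h after nocodazole release, G1/S directly after double thymidine block.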

Sequence | solubility in G1/S (log2) [1] | melting temperature ([2]; cell cycle stage: G1/S) | melting temperature ([2]; cell cycle stage: mitosis) | solubility change mitosis (log2) [3] | thermal stability score [4, 5] | thermal stability score ([4]; cell cycle stage: mitosis)
MATEGMILTNHDHQIRVGVLTVSDSCFRNLAEDRSGINLKDLVQDPSLLGGTISAYKIVPDEIEEIKETLIDWCDEKELNLILTTGGTGFAPRDVTPEATKEVIEREAPGMALAMLMGSLNVTPLGMLSRPVCGIRGKTLIINLPGSKKGSQECFQFILPALPHAIDLLRDAIVKVKEVHDELEDLPSPPPPLSPPPTTSPHKQTEDKGVQCEEEEEEKKDSGVASTEDSSSSHITAAAIAAKIPDSIISRGVQVLPRDTASLSTTPSESPRAQATSRLSTASCPTPKVQSRCSSKENILRASHSAVDITKVARRHRMSPFPLTSMDKAFITVLEMTPVLGTEIINYRDGMGRVLAQDVYAKDNLPPFPASVKDGYAVRAADGPGDRFIIGESQAGEQPTQTVMPGQVMRVTTGAPIPCGADAVVQVEDTELIRESDDGTEELEVRILVQARPGQDIRPIGHDIKRGECVLAKGTHMGPSEIGLLATVGVTEVEVNKFPVVAVMSTGNELLNPEDDLLPGKIRDSNRSTLLATIQEHGYPTINLGIVGDNPDDLLNALNEGISRADVIITSGGVSMGEKDYLKQVLDIDLHAQIHFGRVFMKPGLPTTFATLDIDGVRKIIFALPGNPVSAVVTCNLFVVPALRKMQGILDPRPTIIKARLSCDVKLDPRPEYHRCILTWHHQEPLPWAQSTGNQMSSRLMSMRSANGLLMLPPKTEQYVELHKGEVVDVMVIGRL [GPHN] | 0.226 | 55.6 °C | 54.6 °C | -0.057 | -0.16 | -1.19
MATESPATRRVQVAEHPRLLKLKEMFNSKFGSIPKFYVRAPGRVNIIGEHIDYCGYSVLPMAVEQDVLIAVEPVKTYALQLANTNPLYPDFSTSANNIQIDKTKPLWHNYFLCGLKGIQEHFGLSNLTGMNCLVDGNIPPSSGLSSSSALVCCAGLVTLTVLGRNLSKVELAEICAKSERYIGTEGGGMDQSISFLAEEGTAKLIEFSPLRATDVKLPSGAVFVIANSCVEMNKAATSHFNIRVMECRLAAKLLAKYKSLQWDKVLRLEEVQAKLGISLEEMLLVTEDALHPEPYNPEEICRCLGISLEELRTQILSPNTQDVLIFKLYQRAKHVYSEAARVLQFKKICEEAPENMVQLLGELMNQSHMSCRDMYECSCPELDQLVDICRKFGAQGSRLTGAGWGGCTVSMVPADKLPSFLANVHKAYYQRSDGSLAPEKQSLFATKPGGGALVLLEA [GALK2] | 0.145 | 54.5 °C | 54.2 °C | -0.141 | 0.289 | 0.99
MATGANATPLDFPSKKRKRSRWNQDTMEQKTVIPGMPTVIPPGLTREQERAYIVQLQIEDLTRKLRTGDLGIPPNPEDRSPSPEPIYNSEGKRLNTREFRTRKKLEEERHNLITEMVALNPDFKPPADYKPPATRVSDKVMIPQDEYPEINFVGLLIGPRGNTLKNIEKECNAKIMIRGKGSVKEGKVGRKDGQMLPGEDEPLHALVTANTMENVKKAVEQIRNILKQGIETPEDQNDLRKMQLRELARLNGTLREDDNRILRPWQSSETRSITNTTVCTKCGGAGHIASDCKFQRPGDPQSAQDKARMDKEYLSLMAELGEAPVPASVGSTSGPATTPLASAPRPAAPANNPPPPSLMSTTQSRPPWMNSGPSESRPYHGMHGGGPGGPGGGPHSFPHPLPSLTGGHGGHPMQHNPNGPPPPWMQPPPPPMNQGPHPPGHHGPPPMDQYLGSTPVGSGVYRLHQGKGMMPPPPMGMMPPPPPPPSGQPPPPPSGPLPPWQQQQQQPPPPPPPSSSMASSTPLPWQQNTTTTTTSAGTGSIPPWQQQQAAAAASPGAPQMQGNPTMVPLPPGVQPPLPPGAPPPPPPPPPGSAGMMYAPPPPPPPPMDPSNFVTMMGMGVAGMPPFGMPPAPPPPPPQN [SF1] | 0.255 | 53.4 °C | – | 0.135 | -4.58 | -1.85
MATGLGEPVYGLSEDEGESRILRVKVVSGIDLAKKDIFGASDPYVKLSLYVADENRELALVQTKTIKKTLNPKWNEEFYFRVNPSNHRLLFEVFDENRLTRDDFLGQVDVPLSHLPTEDPTMERPYTFKDFLLRPRSHKSRVKGFLRLKMAYMPKNGGQDEENSDQRDDMEHGWEVVDSNDSASQHQEELPPPPLPPGWEEKVDNLGRTYYVNHNNRTTQWHRPSLMDVSSESDNNIRQINQEAAHRRFRSRRHISEDLEPEPSEGGDVPEPWETISEEVNIAGDSLGLALPPPPASPGSRTSPQELSEELSRRLQITPDSNGEQFSSLIQREPSSRLRSCSVTDAVAEQGHLPPPSAPAGRARSSTVTGGEEPTPSVAYVHTTPGLPSGWEERKDAKGRTYYVNHNNRTTTWTRPIMQLAEDGASGSATNSNNHLIEPQIRRPRSLSSPTVTLSAPLEGAKDSPVRRAVKDTLSNPQSPQPSPYNSPKPQHKVTQSFLPPGWEMRIAPNGRPFFIDHNTKTTTWEDPRLKFPVHMRSKTSLNPNDLGPLPPGWEERIHLDGRTFYIDHNSKITQWEDPRLQNPAITGPAVPYSREFKQKYDYFRKKLKKPADIPNRFEMKLHRNNIFEESYRRIMSVKRPDVLKARLWIEFESEKGLDYGGVAREWFFLLSKEMFNPYYGLFEYSATDNYTLQINPNSGLCNEDHLSYFTFIGRVAGLAVFHGKLLDGFFIRPFYKMMLGKQITLNDMESVDSEYYNSLKWILENDPTELDLMFCIDEENFGQTYQVDLKPNGSEIMVTNENKREYIDLVIQWRFVNRVQKQMNAFLEGFTELLPIDLIKIFDENELELLMCGLGDVDVNDWRQHSIYKNGYCPNHPVIQWFWKAVLLMDAEKRIRLLQFVTGTSRVPMNGFAELYGSNGPQLFTIEQWGSPEKLPRAHTCFNRLDLPPYETFEDLREKLLMAVENAQGFEGVD [NEDD4L] | -0.0714 | 50 °C | 49.6 °C | -0.189 | 0.949 | 2.33
MATIPDWKLQLLARRRQEEASVRGREKAERERLSQMPAWKRGLLERRRAKLGLSPGEPSPVLGTVEAGPPDPDESAVLLEAIGPVHQNRFIRQERQQQQQQQQRSEELLAERKPGPLEARERRPSPGEMRDQSPKGRESREERLSPRETRERRLGIGGAQELSLRPLEARDWRQSPGEVGDRSSRLSEAWKWRLSPGETPERSLRLAESREQSPRRKEVESRLSPGESAYQKLGLTEAHKWRPDSRESQEQSLVQLEATEWRLRSGEERQDYSEECGRKEEWPVPGVAPKETAELSETLTREAQGNSSAGVEAAEQRPVEDGERGMKPTEGWKWTLNSGKAREWTPRDIEAQTQKPEPPESAEKLLESPGVEAGEGEAEKEEAGAQGRPLRALQNCCSVPSPLPPEDAGTGGLRQQEEEAVELQPPPPAPLSPPPPAPTAPQPPGDPLMSRLFYGVKAGPGVGAPRRSGHTFTVNPRRSVPPATPATPTSPATVDAAVPGAGKKRYPTAEEILVLGGYLRLSRSCLAKGSPERHHKQLKISFSETALETTYQYPSESSVLEELGPEPEVPSAPNPPAAQPDDEEDEEELLLLQPELQGGLRTKALIVDESCRR [PPP1R18] | -0.53 | 52.5 °C | 52 °C | 0.428 | 0.778 | 0.67
MATLRRLREAPRHLLVCEKSNFGNHKSRHRHLVQTHYYNYRVSFLIPECGILSEELKNLVMNTGPYYFVKNLPLHELITPEFISTFIKKGSCYALTYNTHIDEDNTVALLPNGKLILSLDKDTYEETGLQGHPSQFSGRKIMKFIVSIDLMELSLNLDSKKYERISWSFKEKKPLKFDFLLAWHKTGSEESTMMSYFSKYQIQEHQPKVALSTLRDLQCPVLQSSELEGTPEVSCRALELFDWLGAVFSNVDLNNEPNNFISTYCCPEPSTVVAKAYLCTITGFILPEKICLLLEHLCHYFDEPKLAPWVTLSVQGFADSPVSWEKNEHGFRKGGEHLYNFVIFNNQDYWLQMAVGANDHCPP [RPP40] | -0.386 | 55.5 °C | 56.5 °C | -0.00249 | -1.89 | -4.46
MATPVVTKTAWKLQEIVAHASNVSSLVLGKASGRLLATGGDDCRVNLWSINKPNCIMSLTGHTSPVESVRLNTPEELIVAGSQSGSIRVWDLEAAKILRTLMGHKANICSLDFHPYGEFVASGSQDTNIKLWDIRRKGCVFRYRGHSQAVRCLRFSPDGKWLASAADDHTVKLWDLTAGKMMSEFPGHTGPVNVVEFHPNEYLLASGSSDRTIRFWDLEKFQVVSCIEGEPGPVRSVLFNPDGCCLYSGCQDSLRVYGWEPERCFDVVLVNWGKVADLAICNDQLIGVAFSQSNVSSYVVDLTRVTRTGTVARDPVQDHRPLAQPLPNPSAPLRRIYERPSTTCSKPQRVKQNSESERRSPSSEDDRDERESRAEIQNAEDYNEIFQPKNSISRTPPRRSEPFPAPPEDDAATAKEAAKPSPAMDVQFPVPNLEVLPRPPVVASTPAPKAEPAIIPATRNEPIGLKASDFLPAVKIPQQAELVDEDAMSQIRKGHDTMCVVLTSRHKNLDTVRAVWTMGDIKTSVDSAVAINDLSVVVDLLNIVNQKASLWKLDLCTTVLPQIEKLLQSKYESYVQTGCTSLKLILQRFLPLITDMLAAPPSVGVDISREERLHKCRLCYKQLKSISGLVKSKSGLSGRHGSTFRELHLLMASLD [KATNB1] | -0.135 | 50.5 °C | 51 °C | -0.0538 | 0.62 | 0.499
MATSATSPHAPGFPAEGRCGYYVEKKKRFCRMVVAAGKRFCGEHAGAAEEEDARKRILCPLDPKHTVYEDQLAKHLKKCNSREKPKPDFYIQDINAGLRDETEIPEQLVPISSLSEEQLEKLIKKLRKASEGLNSTLKDHIMSHPALHDALNDPKNGDSATKHLKQQASILGNIENLKLLGPRRCFVEFGAGKGKLSHWVDIALKDAEKVHFILVEKVTTRFKVDGKHRKKNSVFERLQIDIQHLCLNKIPVLREEKLPVVGIGKHLCGMATDLALRCLVETYAASFEERNEEPLAKRIKNDKTEKEIYTLAKEGNEKNVPEKWNPVAGIVIALCCHHRCDWRHYVGKEYFRALGLGAVEFHYFQRMSSWATCGMRKTSLETSNSTTKRQDNQNDDSEEHDDGGYRITDDGADCLPGLLSVEEKKKIGHLCKLLIDQGRIQYLQQKGFSPALQYYTDPLVSLENVLLTALPNHSSSPETTA [TRMT13] | 0.027 | – | 50.3 °C | -0.0657 | 1.03 | 0.684
MATSLGSNTYNRQNWEDADFPILCQTCLGENPYIRMTKEKYGKECKICARPFTVFRWCPGVRMRFKKTEVCQTCSKLKNVCQTCLLDLEYGLPIQVRDAGLSFKDDMPKSDVNKEYYTQNMEREISNSDGTRPVGMLGKATSTSDMLLKLARTTPYYKRNRPHICSFWVKGECKRGEECPYRHEKPTDPDDPLADQNIKDRYYGINDPVADKLLKRASTMPRLDPPEDKTITTLYVGGLGDTITETDLRNHFYQFGEIRTITVVQRQQCAFIQFATRQAAEVAAEKSFNKLIVNGRRLNVKWGRSQAARGKEKEKDGTTDSGIKLEPVPGLPGALPPPPAAEEEASANYFNLPPSGPPAVVNIALPPPPGIAPPPPPGFGPHMFHPMGPPPPFMRAPGPIHYPSQDPQRMGAHAGKHSSP [RBM22] | -0.116 | 48.6 °C | 49.8 °C | 0.274 | -0.922 | -0.478
